Data taken from CN113683697A (SHANGHAI XIANGYAO BIOTECHNOLOGY CO LTD, dated 2021).
Changes are numbered by the printed parent chain. Names and notes keep the numbering of the source.

T1: 人B7-H3变体1(4Ig-B7-H3) on stable cells 293-h4Ig-B7-H3-copGFP (human, UniProt Q5ZPR3 29-534)
T1 construct: Full-length CDS cloned in pCDH-EF1-T2A-copGFP and expressed on stably transduced cells; residues left by T2A cleavage not described
T1 sequence: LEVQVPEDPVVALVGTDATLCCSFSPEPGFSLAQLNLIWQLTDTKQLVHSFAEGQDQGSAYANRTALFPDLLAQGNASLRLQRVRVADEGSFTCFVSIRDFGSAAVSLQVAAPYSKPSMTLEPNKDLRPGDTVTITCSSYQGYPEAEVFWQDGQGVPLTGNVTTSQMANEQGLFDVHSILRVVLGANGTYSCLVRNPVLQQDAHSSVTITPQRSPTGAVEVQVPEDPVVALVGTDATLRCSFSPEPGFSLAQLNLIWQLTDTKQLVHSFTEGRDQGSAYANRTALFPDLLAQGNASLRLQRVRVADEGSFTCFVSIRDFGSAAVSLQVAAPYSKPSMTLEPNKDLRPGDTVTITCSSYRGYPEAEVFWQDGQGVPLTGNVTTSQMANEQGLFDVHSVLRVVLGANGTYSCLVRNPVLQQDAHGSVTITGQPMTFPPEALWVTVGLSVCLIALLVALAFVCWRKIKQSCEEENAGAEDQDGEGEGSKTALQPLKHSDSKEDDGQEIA

T2: B7-H3 (4Ig-B7-H3) endogenously expressed on MDA-MB-231 cells (UniProt Q5ZPR3 29-534, limits assumed)
T2 construct: whole, on cells; also called 细胞表面的B7-H3抗原
T2 sequence (looked up): T1 sequence

B1: scFv-27B4-H4-L4 (scFv)
scFv: EVQLVQSGAEVKKPGESLKISCKASGYTFTTYWIGWVRQMPGKGLEWMGIIYPGDGGSRYSPSFQGQVTISADKSISTAYLQWSSLKASDTAMYYCARGGNYISFPMYYWGQGTLVTVSSGGGGSGGGGSGGGGSGGGGASEIVLTQSPDFQSVTPKEKVTITCKASRGVSTALHWYQQKPDQSPKLLIKWASQSFSGVPSRFSGSGSGTDFTLTINSLEAEDAATYYCQQHYDTPYTFGQGTKLEIK
notes: VH-linker-VL in phage display vector pXY, expressed in TG1, purified on a nickel column
B2: scFv-27B4-H5-L1 (scFv)
scFv: QVQLVESGGGVVQPGRSLRLSCKASGYTFTTYWMHWVRQAPGKGLEWVAVIYPGDGGSYYTDSVKGRFTISRDNSKNTLYLQMNSLRAEDTAVYYCARGGNYISFPMYYWGQGTLVTVSSGGGGSGGGGSGGGGSGGGGASDIQMTQSPSSLSASMGDRVTITCKASRGVSTALNWYQQKPGKAPKLLIYWASSLQSGVPSRFSGSGSGTDFTLTISSLQPEDFATYYCQQHYDTPYTFGQGTKLEIK
notes: as for B1
B3: scFv-27B4-H5-L2 (scFv)
scFv: B2 scFv with D142V, Q144W, S151L, M156T, T163S, N175A, K186E, S194T, S218C, P221S
notes: as for B1
B4: scFv-27B4-H4-L3 (scFv)
scFv: EVQLVQSGAEVKKPGESLKISCKASGYTFTTYWIGWVRQMPGKGLEWMGIIYPGDGGSRYSPSFQGQVTISADKSISTAYLQWSSLKASDTAMYYCARGGNYISFPMYYWGQGTLVTVSSGGGGSGGGGSGGGGSGGGGASEIVMTQSPATLSVSPGERATLSCKASRGVSTALAWYQQKPGQAPRLLIYWASTRATGIPARFSGSGSGTEFTLTISSLQSEDFAVYYCQQHYDTPYTFGQGTKLEIK
notes: Expressed from phage display vector pXY in TG1, purified on a nickel column
B5: h27B4-H4-L3 (antibody, human IgG1, kappa, V domains shown)
VH: EVQLVQSGAEVKKPGESLKISCKASGYTFTTYWIGWVRQMPGKGLEWMGIIYPGDGGSRYSPSFQGQVTISADKSISTAYLQWSSLKASDTAMYYCARGGNYISFPMYYWGQGTLVTVSS
VL: EIVMTQSPATLSVSPGERATLSCKASRGVSTALAWYQQKPGQAPRLLIYWASTRATGIPARFSGSGSGTEFTLTISSLQSEDFAVYYCQQHYDTPYTFGQGTKLEIKR
notes: Whole IgG, humanized; optimized hIgG1 (L235V, F243L, R292P, Y300L, P396L) and human kappa; also called zw.M0883B9.27B4Z02; 27B4Z02分子
B6: scFv-27B4-H5-L3 (scFv)
scFv: QVQLVESGGGVVQPGRSLRLSCKASGYTFTTYWMHWVRQAPGKGLEWVAVIYPGDGGSYYTDSVKGRFTISRDNSKNTLYLQMNSLRAEDTAVYYCARGGNYISFPMYYWGQGTLVTVSSGGGGSGGGGSGGGGSGGGGASEIVMTQSPATLSVSPGERATLSCKASRGVSTALAWYQQKPGQAPRLLIYWASTRATGIPARFSGSGSGTEFTLTISSLQSEDFAVYYCQQHYDTPYTFGQGTKLEIK
notes: as for B1
B7: scFv-27B4-H4-L5 (scFv)
scFv: EVQLVQSGAEVKKPGESLKISCKASGYTFTTYWIGWVRQMPGKGLEWMGIIYPGDGGSRYSPSFQGQVTISADKSISTAYLQWSSLKASDTAMYYCARGGNYISFPMYYWGQGTLVTVSSGGGGSGGGGSGGGGSGGGGASDIVMTQTPLSLSVTPGQPASISCKASRGVSTALYWYLQKPGQPPQLLIYWASNRFSGVPDRFSGSGSGTDFTLKISRVEAEDVGVYYCQQHYDTPYTFGQGTKLEIK
notes: as for B1
B8: scFv-27B4-H5-L5 (scFv)
scFv: QVQLVESGGGVVQPGRSLRLSCKASGYTFTTYWMHWVRQAPGKGLEWVAVIYPGDGGSYYTDSVKGRFTISRDNSKNTLYLQMNSLRAEDTAVYYCARGGNYISFPMYYWGQGTLVTVSSGGGGSGGGGSGGGGSGGGGASDIVMTQTPLSLSVTPGQPASISCKASRGVSTALYWYLQKPGQPPQLLIYWASNRFSGVPDRFSGSGSGTDFTLKISRVEAEDVGVYYCQQHYDTPYTFGQGTKLEIK
notes: as for B1
B9: h27B4-H2-L2 (antibody, human IgG1, kappa, V domains shown)
VH: QVQLVQSGAEVKKPGSSVKVSCKASGYTFTTYWISWVRQAPGQGLEWMGGIYPGDGGSNYAQKFQGRVTITADESTSTAYMELSSLRSEDTAVYYCARGGNYISFPMYYWGQGTLVTVSS
VL: VIWMTQSPSLLSASTGDRVTISCKASRGVSTALAWYQQKPGKAPELLIYWASTLQSGVPSRFSGSGSGTDFTLTISCLQSEDFATYYCQQHYDTPYTFGQGTKLEIKR
notes: Whole IgG, humanized; optimized hIgG1 (L235V, F243L, R292P, Y300L, P396L) and human kappa; also called zw.M0883B9.27B4Z01
B10: h27B4-H4-L2 (antibody, human IgG1, kappa, V domains shown)
VH: B5 VH
VL: B9 VL
notes: Whole IgG, humanized; optimized hIgG1 (L235V, F243L, R292P, Y300L, P396L) and human kappa; also called zw.M0883B9.27B4Z04
B11: h27B4-H2-L3 (antibody, human IgG1, kappa, V domains shown)
VH: B9 VH
VL: B5 VL
notes: Whole IgG, humanized; optimized hIgG1 (L235V, F243L, R292P, Y300L, P396L) and human kappa; also called zw.M0883B9.27B4Z03
B12: scFv-27B4-H5-L4 (scFv)
scFv: QVQLVESGGGVVQPGRSLRLSCKASGYTFTTYWMHWVRQAPGKGLEWVAVIYPGDGGSYYTDSVKGRFTISRDNSKNTLYLQMNSLRAEDTAVYYCARGGNYISFPMYYWGQGTLVTVSSGGGGSGGGGSGGGGSGGGGASEIVLTQSPDFQSVTPKEKVTITCKASRGVSTALHWYQQKPDQSPKLLIKWASQSFSGVPSRFSGSGSGTDFTLTINSLEAEDAATYYCQQHYDTPYTFGQGTKLEIK
notes: as for B1
B13: MGA-271 (NCT02475213) (antibody, V domains shown)
VH: EVQLVESGGGLVQPGGSLRLSCAASGFTFSSFGMHWVRQAPGKGLEWVAYISSDSSAIYYADTVKGRFTISRDNAKNSLYLQMNSLRDEDTAVYYCGRGRENIYYGSRLDYWGQGTTVTVSS
VL: DIQLTQSPSFLSASVGDRVTITCKASQNVDTNVAWYQQKPGKAPKALIYSASYRYSGVPSRFSGSGSGTDFTLTISSLQPEDFATYYCQQYNNYPFTFGQGTKLEIK
B14: 嵌合抗体xw.M0883B9.27B4 (antibody, human IgG1, kappa, V domains shown)
VH: QVQLQQSGAELARPGASVKLSCKASGYTFTTYWMQWIQQRPGQGLEWIGAIYPGDGGSRYTQRFKGKATMTADPSSSTVYMQLTSLASEDSAVYFCARGGNYISFPMYYWGQGTSVTVSP
VL: DIVMTQSHKFMSTSVGDRVSITCKASRGVSTAVAWYQQKPGQSPKLLIYWASTRHTGVPDRFTGSGSGTDYTLTISSVQAEDLALYYCQQHYDTPYTFGGGTKLEIQR
notes: also called 嵌合抗体27B4; 27B4嵌合抗体

target: T1, 人B7-H3变体1(4Ig-B7-H3) on stable cells …; experiment: FACS, 293-h4Ig-B7-H3-copGFP stable cells

| Binder | binding result |
| --- | --- |
| B1 | binds |
| B2 | binds |
| B3 | binds |
| B4 | binds |
| B5 | binds |
| B6 | binds |
| B7 | binds |
| B8 | binds |
| B9 | binds |
| B10 | binds |
| B11 | binds |
| B12 | binds |

target: T2, B7-H3 (4Ig-B7-H3) endogenously …; experiment: FACS, MDA-MB-231 cells

| Binder | binding result |
| --- | --- |
| B1 | binds |
| B2 | binds |
| B3 | binds |
| B4 | binds |
| B5 | binds |
| B6 | binds |
| B7 | binds |
| B8 | binds |
| B9 | binds |
| B10 | binds |
| B11 | binds |
| B12 | binds |

target: T2, B7-H3 (4Ig-B7-H3) endogenously …; experiment: FACS titration on MDA-MB-231 cells

| Binder | EC50 [µg/mL] |
| --- | --- |
| B13 | 23.8 |
| B14 | 3.2 |
